From patent US20240043517 (published 2024)
Changes are numbered by the printed parent chain.

Legend:
Experiment in all cases: SPR
mouse GDF-15 = target: T1, mouse GDF-15 (mouse, UniProt Q9Z0J7)
T1 chain: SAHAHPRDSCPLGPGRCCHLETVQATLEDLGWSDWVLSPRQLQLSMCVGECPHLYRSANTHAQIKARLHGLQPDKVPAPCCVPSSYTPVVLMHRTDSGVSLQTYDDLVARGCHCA

rat GDF-15 = target: T2, rat GDF-15 (rat, UniProt Q9Z0J6)
T2 chain: T1 chain with A4L, Q63L, K75R, R110Q

cynomolgus GDF-15 = target: T3, cynomolgus GDF-15 (cynomolgus monkey, UniProt G7PWZ3)
T3 chain: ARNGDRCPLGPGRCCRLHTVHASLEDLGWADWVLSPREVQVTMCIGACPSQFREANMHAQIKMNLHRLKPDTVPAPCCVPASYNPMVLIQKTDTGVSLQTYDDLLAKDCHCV

human GDF-15 = target: T4, human GDF-15 (human, UniProt Q99988)
T4 chain: T3 chain with R6H, H21R, E54A, M63T, N64S, V112I

B1: CTL-002 (antibody, V domains shown)
VH: QITLKESGPTLVKPTQTLTLTCTFSGFSLSTSGMGVSWIRQPPGKGLEWLAHIYWDDDKRYNPTLKSRLTITKDPSKNQVVLTMTNMDPVDTATYYCARSSYGAMDYWGQGTLVTVSS
VL: DIVLTQSPSFLSASVGDRVTITCKASQNVGTNVAWFQQKPGKSPKALIYSASYRYSGVPDRFTGSGSGTEFTLTISSLQPEDFAAYFCQQYNNFPYTFGGGTKLEIKR
B1 was tested, and the Kd (mouse GDF-15) was 9.76 nM, the Kd (rat GDF-15) was 0.449 nM and the Kd (cynomolgus GDF-15) was 0.108 nM. It also gave a Kd (human GDF-15) of 0.0383 nM.
